The values below come from article PMC9530591 (eBioMedicine, 2022).

In this assay the target is HA1-trimer (influenza A virus H1N1 …). Description: SPR. The settings on record: both partners purified.

B1: 5J8 (antibody, V domains shown)
VH: EVQLVESGPGLVKPSDILSLTCAVSGYSISSNYYWGWIRQPPGKGLEWIGSIYHSGSTYYKPSLESRLGISVDTSKNQFSLKLSFVSAADTAVYYCARHVRSGYPDTAYYFDKWGQGTLVTVSS
VL: SYVLTQPPSVSVAPGETARISCGGNNIGTKVLHWYQQTPGQAPVLVVYDDSDRPSGIPERFSGSNSGNTATLTISRVEVGDEADYYCQVWDISTDQAVFGGGTKLTVL
Take B1: binding was characterised by a dissociation constant (Kd) of 0.0531 nM.

B2: 32D6 (antibody, V domains shown)
VH: QVQLQESGPGLVKPSETLSLTCTVSGGSVNTGSYYWSWIRQPPGKGLEWIAYSSVSGTSNYNPSLKSRVTLTVDTSKNQFSLSVRSVTAADTAVYFCARLNYDILTGYYFFDFWGQGTLVIVSS
VL: QVELTQSPSASASLGTSVKLTCTLSSGHSTYAIAWHQQRPGKGPRYLMNLSSGGRHTRGDGIPDRFSGSSSGADRYLIISSLQSEDEADYYCQTWDAGMVFGGGTKLTVL
With B2, the Kd was determined as 0.0445 nM.

The term Kd denotes the concentration at which binding is half-saturated. Read a low Kd as higher affinity.
